Results taken from the supplement of paper PMC10065799, “High-throughput profiling of sequence recognition by tyrosine kinases and SH2 domains using bacterial peptide display” (eLife, 2023).

Experiments:
[1] = target: Grb2 SH2 (UniProt P62993); assay: SH2 binding enrichment of the phosphorylated peptide, bacterial display (enrichment ratio); higher = better substrate or ligand; peptides without Tyr show the background
[2] = target: c-Src SH2; assay: as above
[3] = target: SHP2-C SH2; assay: as above
[4] = target: Fes (UniProt P07332); assay: phosphorylation enrichment, bacterial display (enrichment ratio); higher = better substrate or ligand; peptides without Tyr show the background
[5] = test system: c-Abl (mouse); assay: as above
[6] = target: Hck (UniProt P08631); assay: as above
Hck, sequence (P08631 whole entry, looked up): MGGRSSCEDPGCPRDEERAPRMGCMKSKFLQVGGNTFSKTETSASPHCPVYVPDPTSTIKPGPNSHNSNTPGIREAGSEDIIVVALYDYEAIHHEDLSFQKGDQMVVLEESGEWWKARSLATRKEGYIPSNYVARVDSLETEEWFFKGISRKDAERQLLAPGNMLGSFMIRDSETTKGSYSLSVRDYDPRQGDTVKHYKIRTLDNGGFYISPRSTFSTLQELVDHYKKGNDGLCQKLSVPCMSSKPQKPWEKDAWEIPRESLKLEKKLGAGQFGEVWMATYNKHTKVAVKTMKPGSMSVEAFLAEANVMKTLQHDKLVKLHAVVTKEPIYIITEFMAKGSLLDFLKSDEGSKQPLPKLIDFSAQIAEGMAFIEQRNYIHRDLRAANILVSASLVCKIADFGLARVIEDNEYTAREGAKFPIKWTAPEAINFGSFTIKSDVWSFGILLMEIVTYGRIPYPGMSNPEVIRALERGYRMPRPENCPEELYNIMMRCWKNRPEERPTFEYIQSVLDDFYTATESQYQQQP

[7] = target: FGFR1 (UniProt P11362); assay: as above
FGFR1, sequence (P11362 whole entry, looked up): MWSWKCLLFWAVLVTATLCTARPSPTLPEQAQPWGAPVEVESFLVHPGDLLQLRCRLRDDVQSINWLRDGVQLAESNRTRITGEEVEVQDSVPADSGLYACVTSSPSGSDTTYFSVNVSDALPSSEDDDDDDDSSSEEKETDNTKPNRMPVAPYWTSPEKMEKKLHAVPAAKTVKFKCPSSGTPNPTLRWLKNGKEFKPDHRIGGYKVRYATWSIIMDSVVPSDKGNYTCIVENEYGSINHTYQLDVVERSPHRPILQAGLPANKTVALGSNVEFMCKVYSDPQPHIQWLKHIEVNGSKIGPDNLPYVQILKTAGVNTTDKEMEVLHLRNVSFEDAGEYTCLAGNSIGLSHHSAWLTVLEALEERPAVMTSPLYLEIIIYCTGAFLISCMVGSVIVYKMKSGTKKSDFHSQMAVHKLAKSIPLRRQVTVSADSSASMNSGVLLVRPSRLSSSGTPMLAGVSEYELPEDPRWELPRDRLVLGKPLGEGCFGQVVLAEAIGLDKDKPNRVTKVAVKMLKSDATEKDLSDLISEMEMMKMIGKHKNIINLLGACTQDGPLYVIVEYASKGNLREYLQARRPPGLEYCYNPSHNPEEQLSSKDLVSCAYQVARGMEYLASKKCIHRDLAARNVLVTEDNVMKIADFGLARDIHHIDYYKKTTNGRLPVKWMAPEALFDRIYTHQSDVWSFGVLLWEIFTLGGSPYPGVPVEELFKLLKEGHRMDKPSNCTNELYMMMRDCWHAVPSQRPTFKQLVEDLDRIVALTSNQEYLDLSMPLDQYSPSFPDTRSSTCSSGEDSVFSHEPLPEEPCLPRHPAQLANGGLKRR

[8] = test system: Fer (mouse); assay: as above
[9] = target: MERTK (UniProt Q12866); assay: as above
MERTK, sequence (Q12866 whole entry, looked up): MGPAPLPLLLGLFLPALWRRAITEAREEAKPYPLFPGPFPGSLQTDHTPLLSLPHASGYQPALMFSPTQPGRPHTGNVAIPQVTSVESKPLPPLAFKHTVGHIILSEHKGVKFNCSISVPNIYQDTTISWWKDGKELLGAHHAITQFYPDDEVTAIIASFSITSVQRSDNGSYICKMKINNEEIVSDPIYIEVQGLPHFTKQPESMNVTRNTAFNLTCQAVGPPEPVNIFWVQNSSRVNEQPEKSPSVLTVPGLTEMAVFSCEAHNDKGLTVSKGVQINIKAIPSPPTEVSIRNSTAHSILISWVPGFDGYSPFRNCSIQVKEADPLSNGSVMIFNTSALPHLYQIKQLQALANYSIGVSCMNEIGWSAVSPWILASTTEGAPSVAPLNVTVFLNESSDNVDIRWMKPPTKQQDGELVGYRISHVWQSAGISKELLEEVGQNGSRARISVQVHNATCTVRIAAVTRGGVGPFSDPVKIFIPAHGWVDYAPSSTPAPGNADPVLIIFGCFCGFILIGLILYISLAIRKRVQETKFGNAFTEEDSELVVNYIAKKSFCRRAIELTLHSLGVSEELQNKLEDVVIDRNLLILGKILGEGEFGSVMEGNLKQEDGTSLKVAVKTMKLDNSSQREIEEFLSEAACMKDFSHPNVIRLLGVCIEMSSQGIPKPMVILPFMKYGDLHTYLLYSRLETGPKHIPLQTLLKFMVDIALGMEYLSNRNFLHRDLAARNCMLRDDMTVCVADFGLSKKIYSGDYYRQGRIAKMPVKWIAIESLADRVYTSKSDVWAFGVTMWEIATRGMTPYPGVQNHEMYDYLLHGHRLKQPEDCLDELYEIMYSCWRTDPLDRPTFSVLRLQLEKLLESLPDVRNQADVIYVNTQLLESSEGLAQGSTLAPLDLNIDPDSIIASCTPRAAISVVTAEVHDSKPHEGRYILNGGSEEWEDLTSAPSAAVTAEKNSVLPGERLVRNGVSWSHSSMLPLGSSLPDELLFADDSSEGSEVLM

[10] = target: FGFR3 (UniProt P22607); assay: as above
[11] = test system: AncSZ; assay: as above
[12] = test system: c-Src; assay: as above
[13] = target: EPHB1 (UniProt P54762); assay: as above
EPHB1, sequence (P54762 whole entry, looked up): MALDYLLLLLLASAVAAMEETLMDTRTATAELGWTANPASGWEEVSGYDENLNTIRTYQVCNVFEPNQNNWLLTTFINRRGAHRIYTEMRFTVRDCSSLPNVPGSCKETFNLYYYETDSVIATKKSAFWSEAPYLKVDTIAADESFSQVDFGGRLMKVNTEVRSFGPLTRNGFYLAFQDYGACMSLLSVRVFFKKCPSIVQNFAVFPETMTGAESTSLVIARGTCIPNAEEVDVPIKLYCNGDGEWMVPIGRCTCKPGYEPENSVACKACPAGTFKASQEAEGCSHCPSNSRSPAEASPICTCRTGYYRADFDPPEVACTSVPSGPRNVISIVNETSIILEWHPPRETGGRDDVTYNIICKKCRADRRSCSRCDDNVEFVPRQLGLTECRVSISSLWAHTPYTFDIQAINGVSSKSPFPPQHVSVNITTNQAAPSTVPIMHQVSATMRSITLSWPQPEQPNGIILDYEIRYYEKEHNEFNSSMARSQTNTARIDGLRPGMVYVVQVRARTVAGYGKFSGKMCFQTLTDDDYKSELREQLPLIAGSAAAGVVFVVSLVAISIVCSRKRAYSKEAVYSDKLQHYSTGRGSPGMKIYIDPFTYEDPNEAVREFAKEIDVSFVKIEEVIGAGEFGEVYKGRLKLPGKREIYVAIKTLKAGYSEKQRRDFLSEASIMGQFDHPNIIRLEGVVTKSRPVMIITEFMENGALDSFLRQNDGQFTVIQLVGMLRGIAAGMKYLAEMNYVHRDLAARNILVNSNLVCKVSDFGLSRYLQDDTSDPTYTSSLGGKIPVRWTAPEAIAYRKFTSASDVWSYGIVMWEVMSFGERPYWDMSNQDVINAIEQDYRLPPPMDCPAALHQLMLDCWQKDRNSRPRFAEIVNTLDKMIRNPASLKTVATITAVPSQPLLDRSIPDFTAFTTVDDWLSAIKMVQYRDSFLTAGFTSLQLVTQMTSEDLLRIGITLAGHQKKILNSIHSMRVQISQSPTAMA

[14] = target: Jak2 (UniProt O60674); assay: as above
[15] = target: EPHB2 (UniProt P29323); assay: as above
EPHB2, sequence (P29323 whole entry, looked up): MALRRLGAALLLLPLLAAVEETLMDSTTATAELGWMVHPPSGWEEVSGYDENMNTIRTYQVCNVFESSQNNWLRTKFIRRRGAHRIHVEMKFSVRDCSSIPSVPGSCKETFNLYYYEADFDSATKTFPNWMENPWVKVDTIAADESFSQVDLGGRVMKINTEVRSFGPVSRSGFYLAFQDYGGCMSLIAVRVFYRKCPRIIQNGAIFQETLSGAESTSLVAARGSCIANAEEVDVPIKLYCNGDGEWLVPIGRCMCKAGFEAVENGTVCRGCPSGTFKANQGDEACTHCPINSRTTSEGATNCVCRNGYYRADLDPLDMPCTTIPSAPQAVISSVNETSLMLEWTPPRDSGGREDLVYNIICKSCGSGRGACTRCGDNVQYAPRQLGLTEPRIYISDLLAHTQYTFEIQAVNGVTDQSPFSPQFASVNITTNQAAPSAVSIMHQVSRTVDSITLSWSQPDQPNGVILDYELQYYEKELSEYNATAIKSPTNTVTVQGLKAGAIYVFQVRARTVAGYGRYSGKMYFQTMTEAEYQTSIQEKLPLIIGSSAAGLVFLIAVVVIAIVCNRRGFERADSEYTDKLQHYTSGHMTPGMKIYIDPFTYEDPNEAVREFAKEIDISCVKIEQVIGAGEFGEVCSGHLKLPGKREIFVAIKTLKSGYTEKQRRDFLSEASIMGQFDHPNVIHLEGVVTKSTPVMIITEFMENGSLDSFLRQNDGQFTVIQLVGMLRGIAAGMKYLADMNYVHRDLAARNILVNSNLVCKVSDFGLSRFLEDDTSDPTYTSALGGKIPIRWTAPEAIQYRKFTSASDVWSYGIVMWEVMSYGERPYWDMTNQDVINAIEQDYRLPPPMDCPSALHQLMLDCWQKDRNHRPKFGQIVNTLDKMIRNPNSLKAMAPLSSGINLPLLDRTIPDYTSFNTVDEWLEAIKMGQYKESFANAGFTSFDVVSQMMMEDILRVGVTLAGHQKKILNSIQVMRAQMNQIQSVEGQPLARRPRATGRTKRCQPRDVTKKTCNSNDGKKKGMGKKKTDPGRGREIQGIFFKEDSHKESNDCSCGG

[16] = target: Fyn (UniProt P06241); assay: as above
Fyn, sequence (P06241 whole entry, looked up, the tested form may be a part): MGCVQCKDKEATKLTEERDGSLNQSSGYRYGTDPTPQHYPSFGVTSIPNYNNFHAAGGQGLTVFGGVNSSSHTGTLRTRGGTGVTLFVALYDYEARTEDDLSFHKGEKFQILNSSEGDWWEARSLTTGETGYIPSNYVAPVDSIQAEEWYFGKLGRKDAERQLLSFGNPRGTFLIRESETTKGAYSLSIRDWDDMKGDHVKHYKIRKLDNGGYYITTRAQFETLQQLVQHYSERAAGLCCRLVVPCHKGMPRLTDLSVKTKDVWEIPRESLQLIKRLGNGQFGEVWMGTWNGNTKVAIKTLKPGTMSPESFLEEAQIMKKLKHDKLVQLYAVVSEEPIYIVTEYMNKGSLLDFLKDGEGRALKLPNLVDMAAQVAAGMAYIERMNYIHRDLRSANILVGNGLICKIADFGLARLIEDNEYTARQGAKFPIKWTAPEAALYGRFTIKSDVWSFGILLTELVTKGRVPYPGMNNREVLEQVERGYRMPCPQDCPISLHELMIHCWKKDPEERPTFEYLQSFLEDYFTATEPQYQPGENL
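Throughout, for SH2 binding enrichment of the phosphorylated peptide, bacterial display: peptide library displayed on the E. coli surface as eCPX fusions, selected cells deep-sequenced, score is each peptide's frequency after selection divided by its frequency in the input.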
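Throughout, for phosphorylation enrichment, bacterial display: 11-residue human phosphosite peptides and single-mutation variants displayed on the E. coli surface, counted by deep sequencing, each peptide's frequency after selection divided by its frequency in the unselected input library; frequency after pTyr selection over input frequency; kinase dosed for 20-30% of maximal phosphorylation in three min.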

Row | SH2 binding enrichment [1] | SH2 binding enrichment [2] | SH2 binding enrichment [3] | Sequence | phosphorylation enrichment [4] | phosphorylation enrichment [5] | phosphorylation enrichment [6] | phosphorylation enrichment [7] | phosphorylation enrichment [8] | phosphorylation enrichment [9] | phosphorylation enrichment [10] | phosphorylation enrichment [11] | phosphorylation enrichment [12] | phosphorylation enrichment [13] | phosphorylation enrichment [14] | phosphorylation enrichment [15] | phosphorylation enrichment [16]
1 | 0.816 | 0.479 | 0.676 | ETDSEYVKLAK [C7orf57_Y70] | 0.817 | 0.588 | 0.425 | 0.377 | 0.335 | 0.398 | 0.478 | 0.934 | 0.391 | 0.441 | 0.69 | 0.492 | 0.433
2 | 0.902 | 0.775 | 0.916 | ETDTRYFDEEF [AKT1_Y437] | 1.29 | 0.875 | 0.665 | 0.567 | 0.563 | 0.527 | 0.81 | 1.32 | 0.679 | 0.633 | 1.37 | 0.714 | 0.544
3 | 0.796 | 0.45 | 0.522 | ETKAFYPEEIS [HSPA1A_Y115] | 0.919 | 0.584 | 0.506 | 0.521 | 0.537 | 0.408 | 0.687 | 1.08 | 0.511 | 0.52 | 1.16 | 0.747 | 0.414
4 | 0.865 | 2.09 | 0.791 | ETWHNYHKFDS [MATR3_Y243_S240W] | 0.755 | 0.48 | 0.448 | 0.942 | 0.395 | 0.458 | 0.732 | 0.7 | 0.439 | 0.799 | 0.71 | 0.605 | 0.468
5 | 0.753 | 0.609 | 0.8 | EVASVYQSYQP [MAVS_Y92] | 0.802 | 1.14 | 7.42 | 0.518 | 2.7 | 0.569 | 0.568 | 0.864 | 7.09 | 0.54 | 0.661 | 0.622 | 9.7
6 | 1.11 | 0.503 | 0.379 | EVTRLYGSVCD [TC2N_Y154_K151T] | 1.29 | 0.895 | 2.02 | 0.557 | 0.982 | 0.727 | 0.783 | 1.18 | 2.77 | 0.708 | 1.27 | 0.586 | 3.63
7 | 0.897 | 0.545 | 0.672 | EWKQKYEESQS [MYH6_Y1462] | 1.08 | 0.706 | 0.528 | 0.499 | 0.44 | 0.357 | 0.65 | 1.02 | 0.395 | 0.525 | 1.04 | 0.616 | 0.49
8 | 0.936 | 0.695 | 1.06 | FADIAYIYRHG [PAH_Y166_N167I] | 0.978 | 0.685 | 0.445 | 0.616 | 0.486 | 0.416 | 0.583 | 0.842 | 0.638 | 0.506 | 1.02 | 0.497 | 0.432
9 | 0.751 | 0.477 | 0.654 | FADIAYNYHHG [PAH_Y166_R169H] | 0.803 | 0.415 | 0.494 | 0.433 | 0.443 | 0.462 | 0.525 | 0.643 | 0.638 | 0.387 | 0.567 | 0.385 | 0.469
10 | 0.881 | 0.533 | 1 | FAKTQYPDIYA [CRX_Y63_V66I] | 0.693 | 0.526 | 0.709 | 0.449 | 0.359 | 0.396 | 0.668 | 0.518 | 0.572 | 0.355 | 0.563 | 0.427 | 0.519
11 | 0.914 | 0.583 | 0.85 | FAREGYSALPQ [SARS2_Y52_YF] | 0.666 | 0.564 | 0.524 | 0.471 | 0.441 | 0.502 | 0.446 | 0.603 | 0.43 | 0.426 | 0.652 | 0.466 | 0.421
12 | 0.917 | 0.576 | 0.723 | FASVEYQEALS [GALNS_Y461_A459V] | 0.997 | 0.738 | 0.471 | 0.484 | 0.47 | 0.416 | 0.631 | 1.01 | 0.442 | 0.621 | 0.876 | 0.588 | 0.615
13 | 0.836 | 0.735 | 0.969 | FCIDHYLGKEM [G6PD_Y202_R198C_YF] | 0.901 | 0.49 | 0.43 | 0.397 | 0.633 | 0.375 | 0.569 | 0.725 | 0.394 | 0.581 | 0.63 | 0.505 | 0.657
14 | 0.727 | 1.79 | 1 | FDCGMYSHLQG [LGR4_Y848_YF] | 1.31 | 1.07 | 3.54 | 0.89 | 1.64 | 4.74 | 1 | 1.37 | 3.25 | 1.08 | 1.18 | 0.969 | 0.985
15 | 0.772 | 0.482 | 0.745 | FDCKWYIPLTD [BCR_Y756_YF] | 1.49 | 0.826 | 0.581 | 0.661 | 0.66 | 0.625 | 1.06 | 1.45 | 0.466 | 0.998 | 1.44 | 0.818 | 0.41
16 | 0.664 | 0.451 | 0.582 | FEGAIYRKDVG [GART_Y417] | 0.707 | 0.457 | 0.514 | 0.347 | 0.662 | 0.288 | 0.539 | 0.645 | 0.393 | 0.332 | 0.467 | 0.312 | 0.405
17 | 0.736 | 0.551 | 0.738 | FEPWVYSFSFE [PRKDC_Y647_YF] | 1.65 | 0.842 | 3.01 | 0.653 | 1.34 | 1.66 | 1.03 | 1.59 | 6.33 | 0.775 | 1.25 | 0.744 | 6.63
